Measurements from paper PMC4859152 (The Biochemical journal, 2015).
Substitutions are numbered along the chain they refer to.

B1: WT Prx3, hyperoxidized dimer (enzyme, human, UniProt P30048 62-256, looked up)
chain: APAVTQHAPYFKGTAVVNGEFKDLSLDDFKGKYLVLFFYPLDFTFVCPTEIVAFSDKANEFHDVNCEVVAVSVDSHFSHLAWINTPRKNGGLGHMNIALLSDLTKQISRDYGVLLEGSGLALRGLFIIDPNGVIKHLSVNDLPVGRSVEETLRLVKAFQYVETHGEVCPANWTPDSPTIKPSPAASKEYFQKVNQ
modifications: per dimer: one Cys-Sp as sulfinic acid (SpO2-), the other active site a Cys-Sp to Cys-Sr disulfide
B2: CT* Prx3, oxidized (as purified) (enzyme, human, UniProt P30048 62-256, looked up)
chain: B1 chain with N171G, T173K, D175G, P177D
modifications: oxidized form (inter-subunit disulfides)
B3: WT Prx3, reduced (enzyme, human, UniProt P30048 62-256, looked up)
chain: B1 chain
B4: WT Prx3, oxidized (disulfide) (enzyme, human, UniProt P30048 62-256, looked up)
chain: B1 chain
modifications: intermolecular disulfides between Cys-Sp and Cys-Sr of the opposing subunit (two per dimer)
B5: WT Prx2, oxidized (disulfide) (enzyme, human, UniProt P32119 1-198, looked up)
chain: MASGNARIGKPAPDFKATAVVDGAFKEVKLSDYKGKYVVLFFYPLDFTFVCPTEIIAFSNRAEDFRKLGCEVLGVSVDSQFTHLAWINTPRKEGGLGPLNIPLLADVTRRLSEDYGVLKTDEGIAYRGLFIIDGKGVLRQITVNDLPVGRSVDEALRLVQAFQYTDEHGEVCPAGWKPGSDTIKPNVDDSKEYFSKHN
modifications: intermolecular disulfides between Cys-Sp and Cys-Sr of the opposing subunit (two per dimer)
B6: CT* Prx2, oxidized (as purified) (enzyme, human, UniProt P32119 1-198, looked up)
chain: B5 chain with G175N, K177T, G179D, D181P
modifications: oxidized form (inter-subunit disulfides)

Assays:
SEC [1] = molecular target: the molecule itself; assay: SEC
non-reducing SDS/PAGE = molecular target: the molecule itself; assay: non-reducing SDS/PAGE
SEC [2] = molecular target: the molecule itself; assay: SEC; remark: listed apart in the source

Row | Protein | stoichiometry N (SEC [1]) | stoichiometry N (non-reducing SDS/PAGE) | stoichiometry N (SEC [2])
1 | B1 | 2 | – | –
2 | B2 | – | 2 | –
3 | B3 | – | – | 2
4 | B4 | – | 2 | –
5 | B5 | 10 | 2 | –
6 | B6 | – | 2 | –
